Measured values reported in patent publication US20130116182A1, “Factor VIII B Cell Epitope Variants Having Reduced Immunogenicity” (priority 2009, published 2013).
pKd: −log10 of the molar value.

Biological target: BO2C11 Fab fragment
Experiment: SPR, BO2C11 Fab on chip, 25 C, 1:1 model

Substance | pKd | koff [s⁻¹] | kon [M⁻¹ s⁻¹]
FVIII C2 domain protein W2313Y (from UniProt P00451 2189-2351) | 10.96 | 8.7e-05 | 8.2e+06
FVIII C2 domain protein K2207A (from UniProt P00451 2189-2351) | 10.89 | 5.9e-05 | 4.6e+06
FVIII C2 domain protein K2279A (from UniProt P00451 2189-2351) | 10.59 | 0.00019 | 7.2e+06
FVIII C2 domain protein Q2213A (from UniProt P00451 2189-2351) | 11.36 | 6.1e-05 | 1.4e+07
FVIII C2 domain protein L2273A (from UniProt P00451 2189-2351) | 10.82 | 0.00017 | 1.1e+07
FVIII C2 domain protein T2253A (from UniProt P00451 2189-2351) | 11.01 | 5.2e-05 | 5.3e+06
FVIII C2 domain protein N2277A (from UniProt P00451 2189-2351) | 11.30 | 6e-05 | 1.2e+07
FVIII C2 domain protein T2202A (from UniProt P00451 2189-2351) | 11.24 | 3.5e-05 | 6e+06
FVIII C2 domain protein P2300L (from UniProt P00451 2189-2351) | 11.28 | 9.5e-05 | 1.8e+07
FVIII C2 domain protein H2315A (from UniProt P00451 2189-2351) | 11.31 | 7.3e-05 | 1.5e+07
FVIII C2 domain protein A2201P (from UniProt P00451 2189-2351) | 10.72 | 0.00016 | 8.4e+06
FVIII C2 domain protein Q2222A (from UniProt P00451 2189-2351) | 11.28 | 3.9e-05 | 7.4e+06
FVIII C2 domain protein K2249A (from UniProt P00451 2189-2351) | 11.21 | 3.7e-05 | 6.1e+06
FVIII C2 domain protein H2211A (from UniProt P00451 2189-2351) | 11.27 | 3.8e-05 | 7.1e+06
FVIII C2 domain protein R2307Q (from UniProt P00451 2189-2351) | 11.33 | 9e-05 | 1.9e+07
FVIII C2 domain protein H2269A (from UniProt P00451 2189-2351) | 11.11 | 0.00017 | 2.2e+07
FVIII C2 domain protein V2223M (from UniProt P00451 2189-2351) | 11.20 | 3.6e-05 | 5.7e+06
FVIII C2 domain protein E2181A (from UniProt P00451 2189-2351) | 11.07 | 0.00019 | 2.2e+07
FVIII C2 domain protein R2304H (from UniProt P00451 2189-2351) | 11.04 | 9.2e-05 | 1e+07
FVIII C2 domain protein Q2316A (from UniProt P00451 2189-2351) | 10.60 | 0.00032 | 1.3e+07
FVIII C2 domain protein S2173I (from UniProt P00451 2189-2351) | 11.14 | 0.00011 | 1.5e+07

The next substances have a higher pKd than those just listed; values first:

pKd | koff [s⁻¹] | kon [M⁻¹ s⁻¹] | Substance
11.57 | 8.6e-05 | 3.2e+07 | FVIII C2 domain protein N2224A (from UniProt P00451 2189-2351)
11.62 | 5.7e-05 | 2.4e+07 | FVIII C2 domain protein L2302A (from UniProt P00451 2189-2351)
11.47 | 6.4e-05 | 1.9e+07 | FVIII C2 domain protein K2227A (from UniProt P00451 2189-2351)
11.52 | 6.8e-05 | 2.3e+07 | FVIII C2 domain protein Q2311A (from UniProt P00451 2189-2351)
11.72 | 2.9e-05 | 1.5e+07 | FVIII C2 domain protein H2309A (from UniProt P00451 2189-2351)
11.38 | 5.4e-05 | 1.3e+07 | FVIII C2 domain protein T2272A (from UniProt P00451 2189-2351)
11.72 | 4.4e-05 | 2.3e+07 | FVIII C2 domain protein L2212A (from UniProt P00451 2189-2351)
11.59 | 5.4e-05 | 2.1e+07 | FVIII C2 domain protein E2327A (from UniProt P00451 2189-2351)
11.62 | 3.9e-05 | 1.6e+07 | FVIII C2 domain protein N2225A (from UniProt P00451 2189-2351)
11.82 | 0.00018 | 1.2e+08 | FVIII C2 domain protein Q2270A (from UniProt P00451 2189-2351)
11.54 | 2e-05 | 6.8e+06 | FVIII C2 domain protein K2227Q (from UniProt P00451 2189-2351)
